Test results as given in IntAct's records for PubMed 25910212.

B1: E3 ubiquitin-protein ligase Midline-1 (Homo sapiens), O15344 (parent)
chain: METLESELTCPICLELFEDPLLLPCAHSLCFNCAHRILVSHCATNESVESITAFQCPTCRHVITLSQRGLDGLKRNVTLQNIIDRFQKASVSGPNSPSETRRERAFDANTMTSAEKVLCQFCDQDPAQDAVKTCVTCEVSYCDECLKATHPNKKPFTGHRLIEPIPDSHIRGLMCLEHEDEKVNMYCVTDDQLICALCKLVGRHRDHQVAALSERYDKLKQNLESNLTNLIKRNTELETLLAKLIQTCQHVEVNASRQEAKLTEECDLLIEIIQQRRQIIGTKIKEGKVMRLRKLAQQIANCKQCIERSASLISQAEHSLKENDHARFLQTAKNITERVSMATASSQVLIPEINLNDTFDTFALDFSREKKLLECLDYLTAPNPPTIREELCTASYDTITVHWTSDDEFSVVSYELQYTIFTGQANVVSLCNSADSWMIVPNIKQNHYTVHGLQSGTKYIFMVKAINQAGSRSSEPGKLKTNSQPFKLDPKSAHRKLKVSHDNLTVERDESSSKKSHTPERFTSQGSYGVAGNVFIDSGRHYWEVVISGSTWYAIGLAYKSAPKHEWIGKNSASWALCRCNNNWVVRHNSKEIPIEPAPHLRRVGILLDYDNGSIAFYDALNSIHLYTFDVAFAQPVCPTFTVWNKCLTIITGLPIPDHLDCTEQLP
partner: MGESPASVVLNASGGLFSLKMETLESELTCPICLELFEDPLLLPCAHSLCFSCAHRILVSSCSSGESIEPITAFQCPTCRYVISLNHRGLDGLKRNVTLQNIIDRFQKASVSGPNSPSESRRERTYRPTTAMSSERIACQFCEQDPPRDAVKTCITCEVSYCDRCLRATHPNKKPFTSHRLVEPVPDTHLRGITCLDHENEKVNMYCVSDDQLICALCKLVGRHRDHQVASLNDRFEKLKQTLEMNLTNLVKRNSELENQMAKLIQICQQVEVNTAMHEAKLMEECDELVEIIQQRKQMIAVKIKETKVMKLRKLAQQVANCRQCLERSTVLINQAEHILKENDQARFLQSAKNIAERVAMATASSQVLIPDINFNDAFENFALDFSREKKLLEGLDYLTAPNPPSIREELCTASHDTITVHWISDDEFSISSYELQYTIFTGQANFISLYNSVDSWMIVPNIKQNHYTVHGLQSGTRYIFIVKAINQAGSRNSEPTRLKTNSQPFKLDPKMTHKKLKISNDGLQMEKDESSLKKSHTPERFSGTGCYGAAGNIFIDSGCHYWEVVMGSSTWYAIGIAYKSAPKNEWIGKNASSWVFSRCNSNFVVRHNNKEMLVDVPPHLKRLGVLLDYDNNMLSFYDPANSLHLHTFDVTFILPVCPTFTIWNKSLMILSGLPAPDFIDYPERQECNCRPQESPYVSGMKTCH
B2: EF-hand domain-containing protein 1 (Homo sapiens), Q5JVL4 (parent)
chain: MVSNPVHGLPFLPGTSFKDSTKTAFHRSQTLSYRNGYAIVRRPTVGIGGDRLQFNQLSQAELDELASKAPVLTYGQPKQAPPADFIPAHVAFDKKVLKFDAYFQEDVPMSTEEQYRIRQVNIYYYLEDDSMSVIEPVVENSGILQGKLIKRQRLAKNDRGDHYHWKDLNRGINITIYGKTFRVVDCDQFTQVFLESQGIELNPPEKMALDPYTELRKQPLRKYVTPSDFDQLKQFLTFDKQVLRFYAIWDDTDSMYGECRTYIIHYYLMDDTVEIREVHERNDGRDPFPLLMNRQRVPKVLVENAKNFPQCVLEISDQEVLEWYTAKDFIVGKSLTILGRTFFIYDCDPFTRRYYKEKFGITDLPRIDVSKREPPPVKQELPPYNGFGLVEDSAQNCFALIPKAPKKDVIKMLVNDNKVLRYLAVLESPIPEDKDRRFVFSYFLATDMISIFEPPVRNSGIIGGKYLGRTKVVKPYSTVDNPVYYGPSDFFIGAVIEVFGHRFIILDTDEYVLKYMESNAAQYSPEALASIQNHVRKREAPAPEAESKQTEKDPGVQELEALIDTIQKQLKDHSCKDNIREAFQIYDKEASGYVDRDMFFKICESLNVPVDDSLVKELIRMCSHGEGKINYYNFVRAFSN
B3: Chorion-specific transcription factor GCMb (Homo sapiens), O75603 (parent)
chain: MPAAAVQEAVGVCSYGMQLSWDINDPQMPQELALFDQFREWPDGYVRFIYSSDEKKAQRHLSGWAMRNTNNHNGHILKKSCLGVVVCTQACTLPDGSRLQLRPAICDKARLKQQKKACPNCHSALELIPCRGHSGYPVTNFWRLDGNAIFFQAKGVHDHPRPESKSETEARRSAIKRQMASFYQPQKKRIRESEAEENQDSSGHFSNIPPLENPEDFDIVTETSFPIPGQPCPSFPKSDVYKATCDLATFQGDKMPPFQKYSSPRIYLPRPPCSYELANPGYTNSSPYPTLYKDSTSIPNDTDWVHLNTLQCNVNSYSSYERSFDFTNKQHGWKPALGKPSLVERTNHGQFQAMATRPYYNPELPCRYLTTPPPGAPALQTVITTTTKVSYQAYQPPAMKYSDSVREVKSLSSCNYAPEDTGMSVYPEPWGPPVTVTRAASPSGPPPMKIAGDCRAIRPTVAIPHEPVSSRTDEAETWDVCLSGLGSAVSYSDRVGPFFTYNNEDF
partner: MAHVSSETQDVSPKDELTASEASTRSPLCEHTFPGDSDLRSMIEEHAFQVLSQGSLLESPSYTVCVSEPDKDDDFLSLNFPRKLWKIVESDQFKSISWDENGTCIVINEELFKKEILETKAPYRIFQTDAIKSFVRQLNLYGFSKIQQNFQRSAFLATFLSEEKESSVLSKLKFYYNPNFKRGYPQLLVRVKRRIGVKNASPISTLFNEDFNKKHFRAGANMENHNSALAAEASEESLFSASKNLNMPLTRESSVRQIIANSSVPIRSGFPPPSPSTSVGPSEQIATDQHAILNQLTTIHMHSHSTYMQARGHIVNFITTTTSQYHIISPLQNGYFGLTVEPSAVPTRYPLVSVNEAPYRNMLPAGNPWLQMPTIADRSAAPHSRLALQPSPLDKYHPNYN
B4: Progranulin (Homo sapiens), P28799 (parent)
chain: MWTLVSWVALTAGLVAGTRCPDGQFCPVACCLDPGGASYSCCRPLLDKWPTTLSRHLGGPCQVDAHCSAGHSCIFTVSGTSSCCPFPEAVACGDGHHCCPRGFHCSADGRSCFQRSGNNSVGAIQCPDSQFECPDFSTCCVMVDGSWGCCPMPQASCCEDRVHCCPHGAFCDLVHTRCITPTGTHPLAKKLPAQRTNRAVALSSSVMCPDARSRCPDGSTCCELPSGKYGCCPMPNATCCSDHLHCCPQDTVCDLIQSKCLSKENATTDLLTKLPAHTVGDVKCDMEVSCPDGYTCCRLQSGAWGCCPFTQAVCCEDHIHCCPAGFTCDTQKGTCEQGPHQVPWMEKAPAHLSLPDPQALKRDVPCDNVSSCPSSDTCCQLTSGEWGCCPIPEAVCCSDHQHCCPQGYTCVAEGQCQRGSEIVAGLEKMPARRASLSHPRDIGCDQHTSCPVGQTCCPSLGGSWACCQLPHAVCCEDRQHCCPAGYTCNVKARSCEKEVVSAQPATFLARSPHVGVKDVECGEGHFCHDNQTCCRDNRQGWACCPYRQGVCCADRRHCCPAGFRCAARGTKCLRREAPRWDAPLRDPALRQLL
B5: U4/U6 small nuclear ribonucleoprotein Prp3 (Homo sapiens), O43395 (parent)
chain: MALSKRELDELKPWIEKTVKRVLGFSEPTVVTAALNCVGKGMDKKKAADHLKPFLDDSTLRFVDKLFEAVEEGRSSRHSKSSSDRSRKRELKEVFGDDSEISKESSGVKKRRIPRFEEVEEEPEVIPGPPSESPGMLTKLQIKQMMEAATRQIEERKKQLSFISPPTPQPKTPSSSQPERLPIGNTIQPSQAATFMNDAIEKARKAAELQARIQAQLALKPGLIGNANMVGLANLHAMGIAPPKVELKDQTKPTPLILDEQGRTVDATGKEIELTHRMPTLKANIRAVKREQFKQQLKEKPSEDMESNTFFDPRVSIAPSQRQRRTFKFHDKGKFEKIAQRLRTKAQLEKLQAEISQAARKTGIHTSTRLALIAPKKELKEGDIPEIEWWDSYIIPNGFDLTEENPKREDYFGITNLVEHPAQLNPPVDNDTPVTLGVYLTKKEQKKLRRQTRREAQKELQEKVRLGLMPPPEPKVRISNLMRVLGTEAVQDPTKVEAHVRAQMAKRQKAHEEANAARKLTAEQRKVKKIKKLKEDISQGVHISVYRVRNLSNPAKKFKIEANAGQLYLTGVVVLHKDVNVVVVEGGPKAQKKFKRLMLHRIKWDEQTSNTKGDDDEESDEEAVKKTNKCVLVWEGTAKDRSFGEMKFKQCPTENMAREHFKKHGAEHYWDLALSESVLESTD
partner: B1 partner

Variants of: B1
Conditions: with MID2, Q9UJV3-2

Variant	effect of a mutation on the interaction
C266R	with no effect
L626P	with no effect

Variants of: B2
Conditions: with ikzf3_human IKZF3, Q9UKT9
Sequence of ikzf3_human IKZF3, Q9UKT9 (Q9UKT9 whole entry): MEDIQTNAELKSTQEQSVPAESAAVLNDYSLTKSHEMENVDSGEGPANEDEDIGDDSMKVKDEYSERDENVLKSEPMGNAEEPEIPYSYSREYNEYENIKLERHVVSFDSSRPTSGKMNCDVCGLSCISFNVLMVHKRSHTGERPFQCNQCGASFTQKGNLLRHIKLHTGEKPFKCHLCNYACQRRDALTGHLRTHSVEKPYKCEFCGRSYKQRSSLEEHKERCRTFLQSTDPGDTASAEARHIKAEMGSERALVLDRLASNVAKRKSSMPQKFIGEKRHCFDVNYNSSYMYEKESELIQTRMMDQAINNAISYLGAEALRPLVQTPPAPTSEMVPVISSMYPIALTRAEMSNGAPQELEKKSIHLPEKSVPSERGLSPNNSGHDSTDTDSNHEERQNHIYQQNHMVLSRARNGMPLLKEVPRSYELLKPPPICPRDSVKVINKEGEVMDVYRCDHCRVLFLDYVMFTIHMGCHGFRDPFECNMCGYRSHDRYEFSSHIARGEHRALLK

Variant	effect of a mutation on the interaction
T508R	with no effect
A394S	disrupting interaction strength
M448T	with no effect

Variants of: B2
Conditions: with kctd4_human KCTD4, Q8WVF5
Sequence of kctd4_human KCTD4, Q8WVF5 (Q8WVF5 whole entry): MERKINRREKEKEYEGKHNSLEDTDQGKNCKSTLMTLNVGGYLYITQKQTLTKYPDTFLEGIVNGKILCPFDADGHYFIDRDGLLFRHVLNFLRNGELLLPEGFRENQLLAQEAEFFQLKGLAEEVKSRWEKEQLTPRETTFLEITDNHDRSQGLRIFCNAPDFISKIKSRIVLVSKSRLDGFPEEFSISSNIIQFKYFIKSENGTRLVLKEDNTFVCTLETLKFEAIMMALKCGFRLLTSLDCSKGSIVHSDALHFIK

Variant	effect of a mutation on the interaction
T508R	with no effect
A394S	disrupting interaction strength
M448T	with no effect

Variants of: B2
Conditions: with rim3a_human RIMBP3, Q9UFD9
Sequence of rim3a_human RIMBP3, Q9UFD9 (Q9UFD9 whole entry): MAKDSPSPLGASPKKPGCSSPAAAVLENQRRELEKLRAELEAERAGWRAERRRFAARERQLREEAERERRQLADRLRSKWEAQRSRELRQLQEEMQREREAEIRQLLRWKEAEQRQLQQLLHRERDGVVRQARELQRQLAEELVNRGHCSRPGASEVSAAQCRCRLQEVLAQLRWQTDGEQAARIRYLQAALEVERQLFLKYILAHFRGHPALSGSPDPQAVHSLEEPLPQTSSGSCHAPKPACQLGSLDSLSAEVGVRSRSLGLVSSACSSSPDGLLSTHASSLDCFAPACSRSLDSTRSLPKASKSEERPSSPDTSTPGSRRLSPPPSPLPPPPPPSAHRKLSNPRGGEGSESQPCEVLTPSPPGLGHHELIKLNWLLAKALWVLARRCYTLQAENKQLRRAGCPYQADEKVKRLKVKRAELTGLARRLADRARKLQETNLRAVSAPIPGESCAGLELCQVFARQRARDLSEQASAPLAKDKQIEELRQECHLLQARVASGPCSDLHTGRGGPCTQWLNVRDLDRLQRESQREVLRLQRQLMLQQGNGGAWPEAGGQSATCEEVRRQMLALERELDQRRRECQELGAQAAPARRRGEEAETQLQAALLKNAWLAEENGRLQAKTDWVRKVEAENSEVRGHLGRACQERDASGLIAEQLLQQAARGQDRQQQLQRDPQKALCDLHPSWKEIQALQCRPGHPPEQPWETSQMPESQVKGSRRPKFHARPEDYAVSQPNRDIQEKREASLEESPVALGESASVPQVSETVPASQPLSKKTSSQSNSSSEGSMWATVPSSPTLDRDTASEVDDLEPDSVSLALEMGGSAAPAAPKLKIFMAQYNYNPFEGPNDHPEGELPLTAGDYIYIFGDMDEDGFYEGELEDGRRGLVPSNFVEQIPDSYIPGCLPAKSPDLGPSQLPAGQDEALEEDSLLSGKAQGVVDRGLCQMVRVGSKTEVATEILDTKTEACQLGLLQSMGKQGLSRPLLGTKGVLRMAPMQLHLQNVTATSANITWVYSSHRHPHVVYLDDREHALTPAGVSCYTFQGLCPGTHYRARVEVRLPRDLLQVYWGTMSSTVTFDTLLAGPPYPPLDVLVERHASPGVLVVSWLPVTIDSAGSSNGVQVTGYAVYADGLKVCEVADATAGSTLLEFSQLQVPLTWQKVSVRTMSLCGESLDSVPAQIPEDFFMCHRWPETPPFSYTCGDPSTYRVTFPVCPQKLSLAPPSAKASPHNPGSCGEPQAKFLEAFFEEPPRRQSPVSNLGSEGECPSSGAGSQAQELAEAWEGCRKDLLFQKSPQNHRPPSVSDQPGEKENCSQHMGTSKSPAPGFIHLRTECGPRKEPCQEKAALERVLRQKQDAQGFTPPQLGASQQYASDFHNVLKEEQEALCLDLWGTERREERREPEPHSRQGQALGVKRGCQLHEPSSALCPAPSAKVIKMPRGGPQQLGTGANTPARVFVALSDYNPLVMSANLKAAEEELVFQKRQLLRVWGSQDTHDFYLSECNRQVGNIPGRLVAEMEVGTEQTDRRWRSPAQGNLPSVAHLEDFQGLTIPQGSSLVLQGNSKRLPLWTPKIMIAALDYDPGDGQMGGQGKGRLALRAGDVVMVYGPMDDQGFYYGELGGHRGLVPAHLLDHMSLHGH

Variant	effect of a mutation on the interaction
T508R	with no effect
A394S	disrupting interaction strength
M448T	with no effect

Variants of: B2
Conditions: with trip6_human TRIP6, Q15654
Sequence of trip6_human TRIP6, Q15654 (Q15654 whole entry): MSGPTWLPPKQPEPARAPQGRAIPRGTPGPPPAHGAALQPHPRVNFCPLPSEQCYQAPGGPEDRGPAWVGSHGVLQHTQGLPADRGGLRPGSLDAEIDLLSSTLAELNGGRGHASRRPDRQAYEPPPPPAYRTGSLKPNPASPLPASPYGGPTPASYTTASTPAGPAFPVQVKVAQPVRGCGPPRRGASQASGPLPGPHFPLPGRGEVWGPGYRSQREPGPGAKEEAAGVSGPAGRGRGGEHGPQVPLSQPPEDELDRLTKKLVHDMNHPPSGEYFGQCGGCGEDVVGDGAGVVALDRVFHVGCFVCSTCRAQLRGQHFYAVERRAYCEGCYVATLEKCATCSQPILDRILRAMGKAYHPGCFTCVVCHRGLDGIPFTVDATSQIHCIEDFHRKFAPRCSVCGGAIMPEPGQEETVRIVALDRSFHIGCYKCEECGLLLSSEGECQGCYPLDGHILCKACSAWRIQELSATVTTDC

Variant	effect of a mutation on the interaction
T508R	with no effect
A394S	disrupting interaction strength
M448T	with no effect

Variants of: B2
Conditions: with KRT15, P19012

Variant	effect of a mutation on the interaction
T508R	with no effect
A394S	disrupting interaction strength
M448T	with no effect

Variants of: B2
Conditions: with TCF4, P15884-3
Sequence of TCF4, P15884-3 (P15884 other isoform, or with tags, fused parts or gaps): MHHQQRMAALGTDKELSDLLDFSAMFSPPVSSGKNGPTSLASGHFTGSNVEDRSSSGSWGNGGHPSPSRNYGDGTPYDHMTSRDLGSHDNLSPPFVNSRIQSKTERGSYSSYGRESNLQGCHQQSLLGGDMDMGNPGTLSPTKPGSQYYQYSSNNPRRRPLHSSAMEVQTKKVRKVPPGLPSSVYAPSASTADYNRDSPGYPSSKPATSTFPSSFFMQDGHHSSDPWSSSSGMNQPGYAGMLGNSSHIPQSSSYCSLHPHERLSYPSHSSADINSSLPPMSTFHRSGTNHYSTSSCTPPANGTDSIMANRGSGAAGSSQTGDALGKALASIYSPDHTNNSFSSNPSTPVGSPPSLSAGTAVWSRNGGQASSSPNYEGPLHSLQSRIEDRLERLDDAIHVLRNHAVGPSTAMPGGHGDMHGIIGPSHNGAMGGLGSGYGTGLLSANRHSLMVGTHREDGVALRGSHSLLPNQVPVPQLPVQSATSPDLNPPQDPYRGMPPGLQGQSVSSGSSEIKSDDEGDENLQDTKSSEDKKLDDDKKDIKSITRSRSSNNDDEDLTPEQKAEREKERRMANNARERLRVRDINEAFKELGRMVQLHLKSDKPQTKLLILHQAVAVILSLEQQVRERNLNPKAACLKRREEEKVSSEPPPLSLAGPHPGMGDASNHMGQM

Variant	effect of a mutation on the interaction
T508R	disrupting interaction strength
A394S	disrupting interaction strength
M448T	with no effect

Variants of: B2
Conditions: with goga2_human GOLGA2, Q08379

Variant	effect of a mutation on the interaction
T508R	with no effect
A394S	disrupting interaction strength
M448T	with no effect

Variants of: B3
Conditions: with hsfy1_human HSFY1, Q96LI6

Variant	effect of a mutation on the interaction
G203S	with no effect
G63S	disrupting interaction strength
R47L	disrupting interaction strength

Variants of: B4
Conditions: with hxa1_human HOXA1, P49639

Variant	effect of a mutation on the interaction
P451L	with no effect
A9D	disrupting interaction strength
R432C	disrupting interaction strength
P248L	with no effect

Variants of: B4
Conditions: with ARFGAP1, Q8N6T3-3

Variant	effect of a mutation on the interaction
P451L	disrupting interaction strength
A9D	disrupting interaction strength
R432C	disrupting interaction strength
P248L	with no effect

Variants of: B4
Conditions: with sgta_human SGTA

Variant	effect of a mutation on the interaction
P451L	with no effect
A9D	disrupting interaction strength
R432C	disrupting interaction strength
P248L	with no effect

Variants of: B4
Conditions: with otx1_human OTX1, P32242
Sequence of otx1_human OTX1, P32242 (P32242 whole entry): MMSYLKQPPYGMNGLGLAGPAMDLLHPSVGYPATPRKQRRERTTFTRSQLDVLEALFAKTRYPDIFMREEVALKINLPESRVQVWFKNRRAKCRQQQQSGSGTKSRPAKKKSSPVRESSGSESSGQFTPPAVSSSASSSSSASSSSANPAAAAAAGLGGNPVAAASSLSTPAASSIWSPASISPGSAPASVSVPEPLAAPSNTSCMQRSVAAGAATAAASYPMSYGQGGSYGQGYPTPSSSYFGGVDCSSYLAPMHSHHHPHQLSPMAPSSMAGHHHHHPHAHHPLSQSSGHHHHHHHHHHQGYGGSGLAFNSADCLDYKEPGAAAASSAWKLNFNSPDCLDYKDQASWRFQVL

Variant	effect of a mutation on the interaction
P451L	with no effect
A9D	disrupting interaction strength
R432C	with no effect
P248L	with no effect

Variants of: B4
Conditions: with ccd33_human CCDC33, Q8N5R6
Sequence of ccd33_human CCDC33, Q8N5R6 (Q8N5R6 whole entry): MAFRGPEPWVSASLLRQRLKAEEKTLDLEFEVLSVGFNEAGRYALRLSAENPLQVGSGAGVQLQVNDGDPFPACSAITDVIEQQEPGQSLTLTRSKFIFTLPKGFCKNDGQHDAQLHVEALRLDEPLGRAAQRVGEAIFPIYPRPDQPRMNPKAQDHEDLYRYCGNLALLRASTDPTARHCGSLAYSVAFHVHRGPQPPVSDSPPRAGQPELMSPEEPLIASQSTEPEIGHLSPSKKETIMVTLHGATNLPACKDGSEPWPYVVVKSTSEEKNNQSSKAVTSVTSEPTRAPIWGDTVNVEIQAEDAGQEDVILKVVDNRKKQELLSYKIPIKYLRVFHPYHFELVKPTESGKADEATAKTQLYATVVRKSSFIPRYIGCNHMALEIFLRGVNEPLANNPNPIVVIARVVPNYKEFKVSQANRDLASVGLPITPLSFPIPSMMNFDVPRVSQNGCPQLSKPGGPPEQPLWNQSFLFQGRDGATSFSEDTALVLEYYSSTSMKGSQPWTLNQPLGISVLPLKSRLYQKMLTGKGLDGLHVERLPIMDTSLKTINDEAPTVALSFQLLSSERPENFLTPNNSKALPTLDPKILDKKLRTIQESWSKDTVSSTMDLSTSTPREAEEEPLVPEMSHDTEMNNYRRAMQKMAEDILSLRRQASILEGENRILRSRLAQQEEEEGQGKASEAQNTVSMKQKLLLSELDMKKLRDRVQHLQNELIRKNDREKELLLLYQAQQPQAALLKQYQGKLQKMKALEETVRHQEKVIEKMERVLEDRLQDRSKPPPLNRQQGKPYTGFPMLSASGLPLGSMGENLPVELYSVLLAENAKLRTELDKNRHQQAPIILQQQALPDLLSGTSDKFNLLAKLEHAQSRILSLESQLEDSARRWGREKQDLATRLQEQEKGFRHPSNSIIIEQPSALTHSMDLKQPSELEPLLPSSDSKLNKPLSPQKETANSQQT

Variant	effect of a mutation on the interaction
P451L	disrupting interaction strength
A9D	disrupting interaction strength
R432C	disrupting interaction strength
P248L	with no effect

Variants of: B5
Conditions: with MID2, Q9UJV3-2

Variant	effect of a mutation on the interaction
T494M	with no effect
P493S	with no effect
A489D	with no effect
